Laboratory results reported in patent US20230243836A1 (published 2023).

What was measured:
VISTA-Fc fusion protein [1] = molecular target: T1, VISTA-Fc fusion protein (human); experiment: biosensor, VISTA-Fc immobilized; estimated affinity, called qualitative
T1 construct: The limits of the VISTA and Fc parts are marked only by underline and bold, which are not preserved
T1 chain: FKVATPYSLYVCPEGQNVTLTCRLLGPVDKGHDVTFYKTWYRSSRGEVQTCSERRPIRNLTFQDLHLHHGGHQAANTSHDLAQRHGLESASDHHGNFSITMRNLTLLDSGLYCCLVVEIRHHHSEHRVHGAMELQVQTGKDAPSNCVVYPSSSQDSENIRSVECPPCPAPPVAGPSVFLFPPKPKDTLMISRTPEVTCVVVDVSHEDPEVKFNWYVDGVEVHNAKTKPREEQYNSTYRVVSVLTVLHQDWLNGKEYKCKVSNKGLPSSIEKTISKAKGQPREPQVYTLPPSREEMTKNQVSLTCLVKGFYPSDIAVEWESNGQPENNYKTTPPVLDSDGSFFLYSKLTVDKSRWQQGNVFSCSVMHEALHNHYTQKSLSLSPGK

VISTA-Fc fusion protein [2] = molecular target: T1, VISTA-Fc fusion protein; experiment: biosensor, VISTA-Fc immobilized, PSGL-1A in flow (0.3-9.6 µM), HBS with Ca and Mg; two-state binding model
Protocol: (§1) The immobilized VISTA-Fc sample was equilibrated in HEPES buffered saline (HBS) containing calcium (1.5 mM calcium chloride) and magnesium (1.0 mM magnesium chloride). The same buffer was used as running buffer. Samples containing the PSGL-1A or PSGL-1B, which also contained calcium and magnesium, were flowed across a solid surface containing the immobilized VISTA-Fc at a flow rate of 60 μl/min, with 120 seconds of contact time and 300 seconds for dissociation after the surface was regenerated with a 3 second pulse of glycine (pH 1.5). Six difference concentrations of PSGL-1A and PSGL-1B were assayed (0.3 μM, 0.60 μM, 1.20 μM, 2.4 μM, 4.8 μM and 9.6 μM).
(§2) Two different analyses of the experiments were performed: (1) a two-state binding model; and (2) an equilibrium affinity analysis (1:1 model).

VISTA-Fc fusion protein [3] = molecular target: T1, VISTA-Fc fusion protein; experiment: biosensor, VISTA-Fc immobilized, PSGL-1A in flow (0.3-9.6 µM), HBS with Ca and Mg; equilibrium affinity analysis (1:1 model)
Protocol: as §1, §2

VISTA-Fc fusion protein [4] = molecular target: T1, VISTA-Fc fusion protein; experiment: biosensor, VISTA-Fc immobilized, PSGL-1B in flow (0.3-9.6 µM), HBS with Ca and Mg; two-state binding model
Protocol: as §1, §2

VISTA-Fc fusion protein [5] = molecular target: T1, VISTA-Fc fusion protein; experiment: biosensor, VISTA-Fc immobilized, PSGL-1B in flow (0.3-9.6 µM), HBS with Ca and Mg; equilibrium affinity analysis (1:1 model)
Protocol: as §1, §2

[6] = molecular target: T2, IgG1-Fc (RED Systems; 110-HG-100) (UniProt P01857-1 100-330 = IgG part); experiment: Sulfo-SBED photo-crosslinking to HL-60 cells, Protein A pull-down, anti-PSGL-1 Western blot
T2 construct: domain: Fc; Negative control, coupled to Sulfo-SBED; also called negative isotype control IgG-Fc
Protocol: Also in these experiments, samples of VISTA-Fc fusion protein (described in Example I) and negative controls of an anti-CD28 antibody (BioXcell, BE0248) and IgG1-Fc (RED Systems; 110-HG-100) were covalently coupled to a bifunctional linker (Sulfo-SBED—ThermoFisher Scientific; 33073) using the manufacturing recommended conditions. The resulting samples were incubated with HL-60 cells for 30 min. at room temperature in a dark place. Crosslinking was photoactivated with a UV light source for 20 min. Cells were then lysed and a Protein A Sepharose pull-down was performed. A Western Blot using an anti-PSGL-1 polyclonal antibody (RED Systems; AF3345) or Streptavidin-HRP was performed on the samples.

B1: PSGL-1 construct A (Fc-fused PSGL-1 with IgG kappa signal sequence and propeptide sequence) (Fc fusion)
chain: QATEYEYLDYDFLPETEPPEMLRNSTDTTPLTGPGTPESTTVEPAARRSTGLDAGGAVTELTTELANMGNLSTDSAAMEIQTTQPAATEAQTTPLAATEAQTTRLTATEAQTTPLAATEAQTTPPAATEAQTTQPTGLEAQTTAPAAMEAQTTAPAAMEAQTTPPAAMEAQTTQTTAMEAQTTAPEATEAQTTQPTATEAQTTPLAAMEALSTEPSATEALSMEPTTKRGLFIPFSVSSVTHKGIPMAASNLSVARSVECPPCPAPPVAGPSVFLFPPKPKDTLMISRTPEVTCVVVDVSHEDPEVKFNWYVDGVEVHNAKTKPREEQYNSTYRVVSVLTVLHQDWLNGKEYKCKVSNKGLPSSIEKTISKAKGQPREPQVYTLPPSREEMTKNQVSLTCLVKGFYPSDIAVEWESNGQPENNYKTTPPVLDSDGSFFLYSKLTVDKSRWQQGNVFSCSVMHEALHNHYTQKSLSLSPGK
notes: Their limits are marked only by italic and bold, which are not preserved; Cells were co-transfected with GCNT1 and FUT3 glycosyltransferases for post-translational modification; also called PSGL-1A
VISTA-Fc fusion protein [1]
  Kd: ~3 µM
VISTA-Fc fusion protein [2]
  Kd: 32.1 µM
VISTA-Fc fusion protein [3]
  Kd: 3.01 µM

B2: PSGL-1 construct B (Fc-fused PSGL-1 with IgG kappa signal sequence and tandem repeat unit) (Fc fusion)
chain: DQATEYEYLDYDFLPETEPPEMLRNSTDTTPLTGPGTPESTTVEPAARRSTGLDAGGAVTELTTELANMGNLSTDSAAMEIQTTQPAATEAQTTQPVPTEAQTTPLAATEAQTTRLTATEAQTTPLAATEAQTTPPAATEAQTTQPTGLEAQTTAPAAMEAQTTAPAAMEAQTTPPAAMEAQTTQTTAMEAQTTAPEATEAQTTQPTATEAQTTPLAAMEALSTEPSATEALSMEPTTKRGLFIPFSVSSVTHKGIPMAASNLSVNYPVGAPDHISVARSVECPPCPAPPVAGPSVFLFPPKPKDTLMISRTPEVTCVVVDVSHEDPEVKFNWYVDGVEVHNAKTKPREEQYNSTYRVVSVLTVLHQDWLNGKEYKCKVSNKGLPSSIEKTISKAKGQPREPQVYTLPPSREEMTKNQVSLTCLVKGFYPSDIAVEWESNGQPENNYKTTPPVLDSDGSFFLYSKLTVDKSRWQQGNVFSCSVMHEALHNHYTQKSLSLSPGK
notes: Its limits are marked only by italic, which is not preserved; Cells were co-transfected with GCNT1 and FUT3 glycosyltransferases; also called PSGL-1B
VISTA-Fc fusion protein [1]
  Kd: ~5 µM
VISTA-Fc fusion protein [4]
  Kd: 5.09 µM
VISTA-Fc fusion protein [5]
  Kd: 4.76 µM

B3: P-selectin glycoprotein ligand 1 (PSGL-1) expressed on human cells (receptor)
chain: QATEYEYLDYDFLPETEPPEMLRNSTDTTPLTGPGTPESTTVEPAARRSTGLDAGGAVTELTTELANMGNLSTDSAAMEIQTTQPAATEAQTTPLAATEAQTTRLTATEAQTTPLAATEAQTTPPAATEAQTTQPTGLEAQTTAPAAMEAQTTAPAAMEAQTTPPAAMEAQTTQTTAMEAQTTAPEATEAQTTQPTATEAQTTPLAAMEALSTEPSATEALSMEPTTKRGLFIPFSVSSVTHKGIPMAASNLSVNYPVGAPDHISVKQCLLAILILALVATIFFVCTVVLAVRLSRKGHMYPVRNYSPTEMVCISSLLPDGGEGPSATANGGLSKAKSPGLTPEPREDREGDDLTLHSFLP
notes: Endogenous protein on cells; also called SELPLG; CD162
[6]
  binding result: no binding
